Results reported in paper PMC5703867, “Development of Novel Promiscuous Anti-Chemokine Peptibodies for Treating Autoimmunity and Inflammation” (Frontiers in Immunology, 2017).
One block for each binder: values may come before it. Where no end group is shown, it is not given here. The star is where a group is joined. Biotin = O=C1N[C@H]2[C@H](CS[C@H]2CCCCC(=O)*)N1

Target: T1, CCL2 (human, UniProt P13500 24-99)
T1 construct: CCL2, human, recombinant; source: bought: PeproTech
Assay: ELISA; chemokine coated on maxisorp plates (0.1-1.0 µg/ml in 0.1 M NaHCO3, pH 8.6), BSA block, biotinylated synthetic peptides in TBST-BSA for 45 min at RT, detected with HRP-streptavidin or AP-anti-biotin; fold binding at 10 and 100 ng/ml peptide
Details: both partners purified

T1 sequence (P13500 24-99): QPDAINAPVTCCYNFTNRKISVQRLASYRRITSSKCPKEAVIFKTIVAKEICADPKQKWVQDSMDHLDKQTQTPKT

binding result: binds
B1: BKT120 biotinylated synthetic peptide (peptide)
peptide: LDYPIPQTVLHHGGGSK(Biotin)G
modifications: also: biotin at C-terminus, format X12GGGSK-biotin-G
notes: BKT120 peptide; C-terminal tail of the linear peptide format X12GGGSK-biotin-G; also called BTK120; source: synthetic peptide (Weizmann Institute of Science)

binding result: binds
B2: BKT130 biotinylated synthetic peptide (peptide)
peptide: SIPSHSIHSAKAGGGSK(Biotin)G
modifications: also: biotin at C-terminus, format X12GGGSK-biotin-G
notes: BKT130 peptide; C-terminal tail of the linear peptide format X12GGGSK-biotin-G; also called BTK130; source: synthetic peptide (Weizmann Institute of Science)
